Key:
[1] = target: T1, HypD (Escherichia coli, UniProt P24192, C41A); assay: HPLC (ZIC-HILIC) ADP formation, specific activity; format: biochemical; conditions: 50 mM HEPES, 2 mM MgCl2, pH 7.4, 37 °C, 500 μM ATP; protein alone
T1 construct: Strep-tagged HypD (plasmid pIBA5hypDWT), [4Fe-4S] protein, overproduced and anaerobically purified from E. coli BEF314 (delta hypB-E)

[2] = substrate: Nc1ncnc2c1ncn2[C@@H]1O[C@H](COP(=O)(O)OP(=O)(O)OP(=O)(O)O)[C@@H](O)[C@H]1O; assay: HPLC (ZIC-HILIC) ADP formation, Michaelis-Menten fit; format: biochemical, Escherichia coli; conditions: 50 mM HEPES, 2 mM MgCl2, pH 7.4, 37 °C, protein alone
Source text: HPLC (ZIC-HILIC) ADP formation, Michaelis-Menten fit on HypC

[3] = substrate: Nc1ncnc2c1ncn2[C@@H]1O[C@H](COP(=O)(O)OP(=O)(O)OP(=O)(O)O)[C@@H](O)[C@H]1O; assay: as above; format: biochemical, Escherichia coli; conditions: 50 mM HEPES, 2 mM MgCl2, pH 7.4, 37 °C, as-isolated complex
Source text: HPLC (ZIC-HILIC) ADP formation, Michaelis-Menten fit on HypC-HypD complex

[4] = substrate: Nc1ncnc2c1ncn2[C@@H]1O[C@H](COP(=O)(O)OP(=O)(O)OP(=O)(O)O)[C@@H](O)[C@H]1O; assay: as above; format: biochemical, Escherichia coli; conditions: 50 mM HEPES, 2 mM MgCl2, pH 7.4, 37 °C, protein alone; remark: listed apart in the source
Source text: HPLC (ZIC-HILIC) ADP formation, Michaelis-Menten fit on HypD

[5] = substrate: Nc1ncnc2c1ncn2[C@@H]1O[C@H](COP(=O)(O)OP(=O)(O)OP(=O)(O)O)[C@@H](O)[C@H]1O; assay: as above; format: biochemical, Escherichia coli; conditions: 50 mM HEPES, 2 mM MgCl2, pH 7.4, 37 °C, as-isolated complex; remark: listed apart in the source
Source text: HPLC (ZIC-HILIC) ADP formation, Michaelis-Menten fit on HybG-HypD complex

[6] = substrate: Nc1ncnc2c1ncn2[C@@H]1O[C@H](COP(=O)(O)OP(=O)(O)OP(=O)(O)O)[C@@H](O)[C@H]1O; assay: as above; format: biochemical, Escherichia coli; conditions: 50 mM HEPES, 2 mM MgCl2, pH 7.4, 37 °C, protein alone; remark: listed apart in the source
Source text: HPLC (ZIC-HILIC) ADP formation, Michaelis-Menten fit on HybG

T1 sequence (P24192 whole entry C41A): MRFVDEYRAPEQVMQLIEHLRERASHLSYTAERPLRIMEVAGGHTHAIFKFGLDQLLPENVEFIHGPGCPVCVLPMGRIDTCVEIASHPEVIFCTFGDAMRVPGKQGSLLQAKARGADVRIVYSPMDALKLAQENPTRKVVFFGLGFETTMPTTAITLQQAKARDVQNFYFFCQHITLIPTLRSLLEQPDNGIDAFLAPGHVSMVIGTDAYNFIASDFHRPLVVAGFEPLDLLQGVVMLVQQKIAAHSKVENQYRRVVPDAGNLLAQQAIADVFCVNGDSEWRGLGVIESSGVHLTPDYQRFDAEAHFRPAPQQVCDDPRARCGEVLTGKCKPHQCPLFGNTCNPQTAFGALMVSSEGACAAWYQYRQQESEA

**Q.** How did the “HPLC (ZIC-HILIC) ADP formation, specific activity” value [1] turn out when `Nc1ncnc2c1ncn2[C@@H]1O[C@H](COP(=O)(O)OP(=O)(O)OP(=O)(O)O)[C@@H](O)[C@H]1O` [ATP] was run?
**A.** The HypDC41A variant on its own had an ATPase activity

B1: HypC (Escherichia coli K-12) (protein)
chain: CIGVPGQIRTIDGNQAKVDVCGIQRDVDLTLVGSCDENGQPRVGQWVLVHVGFAMSVINEAEARDTLDALQNMFDVEPDVGALLYGEEK
notes: Strep-tagged HypC (plasmid pIBA3hypCStrep), anaerobically purified from E. coli BEF314 (delta hypB-E)
**Q.** With B1 as the molecule, how does the Km [2] read?
**A.** 235.72 ± 71.15 µM

**Q.** And the Vmax [2]?
**A.** 0.234 µmol/min/mg

B2: HypC-HypD complex (Escherichia coli K-12) (protein)
chain 1: MRFVDEYRAPEQVMQLIEHLRERASHLSYTAERPLRIMEVCGGHTHAIFKFGLDQLLPENVEFIHGPGCPVCVLPMGRIDTCVEIASHPEVIFCTFGDAMRVPGKQGSLLQAKARGADVRIVYSPMDALKLAQENPTRKVVFFGLGFETTMPTTAITLQQAKARDVQNFYFFCQHITLIPTLRSLLEQPDNGIDAFLAPGHVSMVIGTDAYNFIASDFHRPLVVAGFEPLDLLQGVVMLVQQKIAAHSKVENQYRRVVPDAGNLLAQQAIADVFCVNGDSEWRGLGVIESSGVHLTPDYQRFDAEAHFRPAPQQVCDDPRARCGEVLTGKCKPHQCPLFGNTCNPQTAFGALMVSSEGACAAWYQYRQQESEA
chain 2: CIGVPGQIRTIDGNQAKVDVCGIQRDVDLTLVGSCDENGQPRVGQWVLVHVGFAMSVINEAEARDTLDALQNMFDVEPDVGALLYGEEK
notes: heterodimer, HypC Strep-tagged (pT7-7hypD-hypCStrep), anaerobically co-purified from E. coli MC4100 or BEF314
**Q.** Which results are given for B2?
**A.** Km [3]: 143.48 ± 55.10 µM; Vmax [3]: 0.995 µmol/min/mg

B3: HypD (Escherichia coli K-12) (protein)
chain: MRFVDEYRAPEQVMQLIEHLRERASHLSYTAERPLRIMEVCGGHTHAIFKFGLDQLLPENVEFIHGPGCPVCVLPMGRIDTCVEIASHPEVIFCTFGDAMRVPGKQGSLLQAKARGADVRIVYSPMDALKLAQENPTRKVVFFGLGFETTMPTTAITLQQAKARDVQNFYFFCQHITLIPTLRSLLEQPDNGIDAFLAPGHVSMVIGTDAYNFIASDFHRPLVVAGFEPLDLLQGVVMLVQQKIAAHSKVENQYRRVVPDAGNLLAQQAIADVFCVNGDSEWRGLGVIESSGVHLTPDYQRFDAEAHFRPAPQQVCDDPRARCGEVLTGKCKPHQCPLFGNTCNPQTAFGALMVSSEGACAAWYQYRQQESEA
notes: Strep-tagged HypD (plasmid pIBA5hypDWT), [4Fe-4S] protein, overproduced and anaerobically purified from E. coli BEF314 (delta hypB-E)
**Q.** With B3 as the molecule, how does the Km [4] read?
**A.** 364.48 ± 100.16 µM

**Q.** And the Vmax [4]?
**A.** 0.398 µmol/min/mg

B4: HybG-HypD complex (Escherichia coli K-12) (protein)
chain 1: MRFVDEYRAPEQVMQLIEHLRERASHLSYTAERPLRIMEVCGGHTHAIFKFGLDQLLPENVEFIHGPGCPVCVLPMGRIDTCVEIASHPEVIFCTFGDAMRVPGKQGSLLQAKARGADVRIVYSPMDALKLAQENPTRKVVFFGLGFETTMPTTAITLQQAKARDVQNFYFFCQHITLIPTLRSLLEQPDNGIDAFLAPGHVSMVIGTDAYNFIASDFHRPLVVAGFEPLDLLQGVVMLVQQKIAAHSKVENQYRRVVPDAGNLLAQQAIADVFCVNGDSEWRGLGVIESSGVHLTPDYQRFDAEAHFRPAPQQVCDDPRARCGEVLTGKCKPHQCPLFGNTCNPQTAFGALMVSSEGACAAWYQYRQQESEA
chain 2: MCIGVPGQVLAVGEDIHQLAQVEVCGIKRDVNIALICEGNPADLLGQWVLVHVGFAMSIIDEDEAKATLDALRQMDYDITSA
notes: heterodimer, HybG Strep-tagged (hypDEFhybGStrep plasmid), anaerobically co-purified from E. coli MC4100; small amounts of HypE occasionally co-purify
**Q.** How did the Km [5] turn out when B4 was run?
**A.** 34.78 ± 8.77 µM

**Q.** And the Vmax [5]?
**A.** 1.42 µmol/min/mg

B5: HybG (Escherichia coli K-12) (protein)
chain: MCIGVPGQVLAVGEDIHQLAQVEVCGIKRDVNIALICEGNPADLLGQWVLVHVGFAMSIIDEDEAKATLDALRQMDYDITSA
notes: Strep-tagged HybG (plasmid pIBA3hybGWT), anaerobically purified from E. coli BEF314 (delta hypB-E)
**Q.** Which Km [6] does the source give for B5 here?
**A.** 475.67 ± 29.91 µM

**Q.** And the Vmax [6]?
**A.** 0.56 µmol/min/mg

— PMC6886295, “The iron–sulfur‐containing HypC‐HypD scaffold complex of the [NiFe]‐hydrogenase maturation machinery is an ATPase” (FEBS Open Bio, 2019)
